According to US20210284730A1 (Janssen / Centocor, published 2021):

Legend:
human CD33 [1] = biological target: T1, human CD33 (human, UniProt P20138 18-364); assay: FACS binding to Kasumi-1 tumor cell line (CD33+)
T1 construct: whole, on cells; The target is CD33 on CD33+ tumor cell lines; also called CD33 on MOLM-13, Kasumi-1, OCI-AML-3 and Kasumi-3 cells

human CD33 [2] = biological target: T1, human CD33; assay: FACS binding to OCI-AML-3 tumor cell line (CD33+)
human CD33 [3] = biological target: T1, human CD33; assay: FACS binding to MOLM-13 tumor cell line (CD33+)

T1 sequence (P20138 18-364): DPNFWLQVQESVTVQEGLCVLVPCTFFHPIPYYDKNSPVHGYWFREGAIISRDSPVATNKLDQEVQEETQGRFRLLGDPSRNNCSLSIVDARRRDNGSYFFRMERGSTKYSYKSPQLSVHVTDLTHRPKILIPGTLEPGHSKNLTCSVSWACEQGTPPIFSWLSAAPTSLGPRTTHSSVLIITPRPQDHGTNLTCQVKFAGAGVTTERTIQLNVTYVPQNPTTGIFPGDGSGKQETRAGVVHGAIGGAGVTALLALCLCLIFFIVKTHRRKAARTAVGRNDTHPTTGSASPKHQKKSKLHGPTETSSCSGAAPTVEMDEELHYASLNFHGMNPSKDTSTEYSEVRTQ

EC50 (human CD33 [1]): 82.2 nM
EC50 (human CD33 [2]): 16.4 nM
EC50 (human CD33 [3]): 134 nM
B1: anti-CD33 antibody (clone C33B904) (antibody, V domains shown)
VH: EVQLVESGGGLVQPGRSLRLSCAASGFTFDDYAMHWVRQAPGKGLEWVSGIGWSGGSIVYADSVKGRFTISRDNAKNSLYLQMNSLRAEDTALYYCAKDSPYGDFFDYWGQGTLVTVSS
VL: DIVMTQSPDSLAVSLGERATINCKSSQTVFYSSNNKNYLAWYQQKPGQPPKLLISWASTRKSGVPDRFSGSGSGTDFTLTVSSLQAEDVAVYYCQHYYSTPYTFGQGTKLEIK
notes: also called anti-CD33 clone C33B904; anti-CD33 mAb
